Measured values: the supplement of paper PMC10567573

B1: IQUB (parent)
chain: CRNCINLQNEAQKRESFLKYKCLL
B2: IQUB (parent)
chain: KIREKEEWIKLDYHRRHNPKTNED

Variants of: B1
Assay: protein stability index of a GFP-peptide fusion (GPS, HEK-293T) (PSI 1-6); higher = more stable
Details: c terminus: a fixed tail appended
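Note: lentivirally expressed fusions sorted by FACS into six bins by GFP to DsRed ratio, PSI derived from sequencing read proportions per bin multiplied by bin number.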

| Variant | protein stability index |
| --- | --- |
| R2H | 2.56 |
| R2M | 1.89 |
| R2C | 1.66 |
| R2F | 1.89 |
| R2S | 1.86 |
| R2D | 2.3 |
| R2L | 1.93 |
| R2T | 1.93 |
| R2P | 2.25 |
| R2E | 2.23 |
| R2I | 1.45 |
| R2N | 2.22 |
| R2Q | 1.53 |
| R2A | 1.95 |
| R2G | 1.28 |
| R2W | 1.98 |
| R2K | 1.92 |
| R2Y | 1.64 |
| R2V | 1.41 |
| I5V | 1.61 |
| I5S | 1.89 |
| I5K | 1.45 |
| I5L | 2.16 |
| I5P | 2.04 |
| I5A | 1.79 |

| Variant | protein stability index |
| --- | --- |
| I5E | 2.53 |
| I5H | 1.8 |
| I5D | 2.05 |
| I5R | 1.88 |
| I5T | 1.71 |
| I5N | 2.33 |
| I5G | 1.83 |
| I5Q | 1.97 |
| I5W | 1.4 |
| I5C | 1.64 |
| I5Y | 2.21 |
| I5M | 1.8 |
| Q8N | 1.87 |
| Q8L | 3.13 |
| Q8A | 1.63 |
| Q8H | 2.08 |
| Q8D | 1.13 |
| Q8R | 2.17 |
| Q8E | 2.53 |
| Q8S | 2.82 |
| Q8F | 1.59 |
| Q8I | 1.72 |
| Q8K | 1.38 |
| Q8G | 1.57 |
| Q8P | 1.68 |

| Variant | protein stability index |
| --- | --- |
| Q8T | 1.61 |
| Q8V | 2.12 |
| Q8C | 2.9 |
| Q8W | 2.46 |
| N9L | 2.12 |
| N9M | 1.39 |
| N9T | 1.33 |
| N9A | 1.84 |
| N9C | 1.57 |
| N9P | 2.33 |
| N9W | 2.72 |
| N9V | 1.53 |
| N9S | 1.95 |
| N9Y | 2.32 |
| N9G | 2.15 |
| N9D | 2.28 |
| N9E | 1.42 |
| N9H | 1.53 |
| N9I | 2.01 |
| N9K | 1.98 |
| N9Q | 1.49 |
| N9R | 2.42 |
| R14D | 2.66 |
| R14K | 2.02 |
| R14H | 1.83 |

| Variant | protein stability index |
| --- | --- |
| R14M | 1.39 |
| R14E | 1.36 |
| R14C | 1.64 |
| R14A | 1.02 |
| R14F | 2.34 |
| R14G | 1.67 |
| R14N | 2.26 |
| R14I | 2.86 |
| L7E | 2.27 |
| L7I | 1.79 |
| L7H | 1.55 |
| L7V | 2.01 |
| L7F | 1.68 |
| L7P | 2.21 |
| L7N | 2.26 |
| L7A | 1.75 |
| L7Y | 1.86 |
| L7S | 2.29 |
| L7W | 2.57 |
| L7R | 1.65 |
| L7Q | 1.75 |
| L7G | 2.36 |
| L7T | 1.67 |
| L7M | 2.39 |
| L7D | 2.31 |

| Variant | protein stability index |
| --- | --- |
| L7K | 1.95 |
| L7C | 2.13 |
| N6K | 1.76 |
| N6M | 1.46 |
| N6F | 2.2 |
| N6S | 2.37 |
| N6T | 1.72 |
| N6D | 1.47 |
| N6Y | 1.48 |
| N6H | 1.97 |
| N6Q | 2.25 |
| N6A | 1.77 |
| N6G | 1.91 |
| N6P | 1.7 |
| N6R | 2.09 |
| N6V | 1.88 |
| N6W | 1.9 |
| N6I | 2.59 |
| N6E | 1.7 |
| N6C | 1.76 |
| N6L | 2.27 |
| C4F | 2.15 |
| C4S | 1.51 |
| C4N | 1.93 |
| C4I | 2.28 |

| Variant | protein stability index |
| --- | --- |
| C4G | 1.85 |
| C4D | 1.98 |
| C4V | 1.92 |
| C4L | 1.53 |
| C4Y | 2.51 |
| C4Q | 2.13 |
| C4P | 2 |
| C4M | 2.12 |
| C4R | 3.13 |
| C4W | 1.41 |
| C4E | 1.41 |
| C4A | 2.02 |
| C4K | 2.15 |
| C4H | 1.74 |
| C4T | 1.69 |
| E10D | 1.63 |
| E10C | 1.71 |
| E10R | 1.7 |
| E10L | 1.65 |
| E10Q | 2.23 |
| E10P | 1.37 |
| E10I | 1.35 |
| E10G | 1.68 |
| E10H | 2.56 |
| E10A | 1.52 |

| Variant | protein stability index |
| --- | --- |
| E10N | 1.94 |
| E10M | 2.14 |
| E10K | 2.09 |
| E10T | 1.71 |
| E10S | 1.9 |
| E10F | 2.7 |
| Q12V | 2.12 |
| Q12T | 1.71 |
| Q12C | 1.81 |
| Q12M | 1.5 |
| Q12D | 1.87 |
| Q12A | 2.34 |
| Q12K | 2.06 |
| Q12H | 1.75 |
| Q12F | 2.23 |
| Q12W | 2.31 |
| Q12Y | 2.28 |
| Q12G | 1.75 |
| Q12P | 2.83 |
| Q12N | 1.69 |
| Q12I | 2.58 |
| Q12E | 2.29 |
| Q12R | 1.96 |
| Q12S | 1.31 |
| N3Y | 1.76 |

| Variant | protein stability index |
| --- | --- |
| N3M | 1.08 |
| N3D | 1.92 |
| N3V | 1.7 |
| N3K | 1.9 |
| N3H | 1.99 |
| N3W | 1.68 |
| N3T | 3.29 |
| N3C | 1.61 |
| N3Q | 2.7 |
| N3P | 1.92 |
| N3I | 2.71 |
| N3E | 1.37 |
| N3A | 2.14 |
| N3R | 1.76 |
| N3F | 1.83 |
| N3L | 1.91 |
| N3G | 1.76 |
| N3S | 2.59 |
| K13T | 2.04 |
| K13W | 2.06 |
| K13P | 2.02 |
| K13G | 2.04 |
| K13H | 2.74 |
| K13M | 1.8 |
| K13Q | 1.75 |

| Variant | protein stability index |
| --- | --- |
| K13V | 1.78 |
| K13L | 2.79 |
| K13D | 1.58 |
| K13C | 1.17 |
| K13F | 2.35 |
| K13E | 1.29 |
| K13R | 1.74 |
| K13I | 2.01 |
| K13A | 1.54 |
| K13N | 1.85 |
| K13Y | 1.73 |
| A11P | 1.71 |
| A11T | 2.8 |
| A11N | 1.56 |
| A11Q | 1.34 |
| A11Y | 1.69 |
| A11D | 2.08 |
| A11V | 1.57 |
| A11L | 1.98 |
| A11I | 1.82 |
| A11K | 1.78 |
| A11S | 2.06 |
| A11E | 2.19 |
| A11H | 1.66 |
| A11M | 2.25 |

| Variant | protein stability index |
| --- | --- |
| A11C | 1.59 |
| A11R | 1.19 |
| C1K | 1.9 |
| C1V | 2.78 |
| C1T | 2.66 |
| C1W | 2.08 |
| C1N | 2.33 |
| C1Y | 1.86 |
| C1D | 2.28 |
| C1H | 2.23 |
| C1S | 1.9 |
| C1P | 2.19 |
| C1L | 1.72 |
| C1F | 1.5 |
| C1M | 1.91 |
| C1Q | 2.01 |
| C1G | 2.13 |
| C1A | 2.36 |
| C1R | 1.94 |
| C1I | 1.41 |
| C1E | 1.87 |

Variants of: B2
Assay: as above
Details: c terminus: a fixed tail appended

| Variant | protein stability index |
| --- | --- |
| N22M | 4.29 |
| N22G | 4.79 |
| N22F | 3.84 |
| N22C | 4.85 |
| N22Q | 4.66 |
| N22V | 4.15 |
| N22S | 4.72 |
| N22P | 4.36 |
| N22W | 2.8 |
| N22K | 4.29 |
| N22H | 4.22 |
| N22T | 4.6 |
| N22L | 4.2 |
| N22D | 4.7 |
| N22R | 4.03 |
| N22A | 4.27 |
| N22I | 4.01 |
| N22Y | 4.01 |
| K20R | 4.66 |
| K20V | 4.72 |
| K20P | 5.07 |
| K20I | 4.37 |

| Variant | protein stability index |
| --- | --- |
| K20T | 4.64 |
| K20Q | 4.39 |
| K20W | 3.08 |
| K20G | 4.84 |
| K20F | 2.51 |
| K20H | 4.64 |
| K20S | 4.81 |
| K20Y | 4.03 |
| K20N | 4.21 |
| K20E | 5.2 |
| K20M | 4.53 |
| T21D | 4.79 |
| T21Q | 4.75 |
| T21S | 4.76 |
| T21M | 4.1 |
| T21N | 4.75 |
| T21Y | 4.52 |
| T21A | 5.18 |
| T21L | 4.13 |
| T21G | 5.12 |
| T21W | 3.77 |
| T21V | 4.46 |

| Variant | protein stability index |
| --- | --- |
| T21I | 4.33 |
| T21K | 5.05 |
| T21R | 4.82 |
| T21P | 4.74 |
| T21H | 4.08 |
| T21F | 4.53 |
| T21E | 4.6 |
| T21C | 4.57 |
| D24N | 4.32 |
| D24Q | 4.13 |
| D24L | 3.53 |
| D24W | 3.02 |
| D24Y | 3.65 |
| D24I | 3.83 |
| D24F | 3.27 |
| D24S | 4.27 |
| D24H | 4.04 |
| D24R | 3.89 |
| D24A | 3.91 |
| D24G | 3.72 |
| D24M | 3.88 |
| D24P | 3.66 |

| Variant | protein stability index |
| --- | --- |
| D24T | 4.16 |
| D24C | 3.29 |
| D24K | 4.42 |
| D24V | 3.21 |
| E23Y | 3.77 |
| E23D | 5.01 |
| E23C | 3.91 |
| E23T | 4.54 |
| E23A | 4.52 |
| E23I | 4.13 |
| E23L | 4.17 |
| E23Q | 4.06 |
| E23H | 4.18 |
| E23G | 4.44 |
| E23R | 3.72 |
| E23V | 4.18 |
| E23N | 4.24 |
| E23M | 4.17 |
| E23F | 4.45 |
| E23S | 4.25 |
| E23W | 5.01 |
| E23P | 4.28 |
